{
  "source": "paper PMC10298792",
  "origin": "cited, not measured here",
  "key": {"[1]": {"biological_target": "Bid BH3 (Homo sapiens) (UniProt P55957)", "assay": "ITC"}, "[2]": {"biological_target": "Pxt1 BH3 (Homo sapiens) (UniProt Q8NFP0)", "sequence (Q8NFP0 76-101)": "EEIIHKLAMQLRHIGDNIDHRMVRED", "assay": "ITC"}},
  "data": [
    {"substance": "Bcl-xL (from UniProt Q07817)", "values": [
      {"measurement": "Kd", "setting": "[1]", "result": 0.00862, "unit": "µM"},
      {"measurement": "Kd", "setting": "[2]", "result": 0.233, "unit": "µM"}
    ]},
    {"substance": "Bak (from UniProt Q16611)", "values": [
      {"measurement": "Kd", "setting": "[1]", "result": 22.7, "unit": "µM"}
    ]}
  ]
}
